Broadly, the Kd is the constant that tells how readily two partners part at equilibrium.

These results are taken from US20240034757A1 (OXFORD UNIVERSITY INNOVATION, published 2024).

The target in one experiment is T1, CXCL14_HUMAN (human, UniProt O95715 35-111).
T1 sequence: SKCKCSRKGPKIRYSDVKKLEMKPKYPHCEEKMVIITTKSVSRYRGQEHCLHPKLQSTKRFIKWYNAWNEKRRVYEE
Kind of experiment: BLI. Background: BLI is a label-free optical method that tracks binding on a fibre tip over time.

A further experiment concerns the target CXCL12_HUMAN (human, UniProt P48061 22-89). Kind of experiment: BLI.
A further experiment has as its target T2, CXCL13_HUMAN (human, UniProt O43927 23-109).
T2 sequence: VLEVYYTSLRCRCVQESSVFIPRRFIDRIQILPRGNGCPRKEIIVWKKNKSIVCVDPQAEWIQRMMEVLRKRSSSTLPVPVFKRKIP
Kind of experiment: BLI.

The target of the next experiment is T3, CXCL9_HUMAN (human, UniProt Q07325 23-125).
T3 sequence: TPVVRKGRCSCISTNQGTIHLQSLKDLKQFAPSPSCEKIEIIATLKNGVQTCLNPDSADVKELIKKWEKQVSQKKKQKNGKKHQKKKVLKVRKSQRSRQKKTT
Put plainly: BLI.

For a further experiment, the target named is T4, CXCL10_HUMAN (human, UniProt P02778 22-98).
T4 sequence: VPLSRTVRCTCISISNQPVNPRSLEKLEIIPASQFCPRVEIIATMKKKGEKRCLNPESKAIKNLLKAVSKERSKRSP
Put plainly: BLI.

A further experiment addresses T5, CXCL6_HUMAN (human, UniProt P80162 38-114).
T5 sequence: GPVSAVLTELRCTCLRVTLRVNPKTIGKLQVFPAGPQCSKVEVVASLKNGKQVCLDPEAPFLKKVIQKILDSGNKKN
Put plainly: BLI [Cont.].

Another experiment deals with T6, CXCL1_HUMAN (human, UniProt P09341 35-107).
T6 sequence: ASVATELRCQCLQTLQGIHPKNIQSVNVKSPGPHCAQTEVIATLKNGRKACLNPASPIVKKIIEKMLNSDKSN
Put plainly: yeast surface display FACS re-test. Further: test concentration or dose not given here.

For a further experiment, the target named is T7, CXCL11_HUMAN (human, UniProt O14625 22-94).
T7 sequence: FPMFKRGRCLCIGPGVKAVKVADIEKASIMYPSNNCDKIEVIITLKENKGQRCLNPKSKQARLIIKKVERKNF
Kind of experiment: BLI.

A further experiment concerns the target T8, P546_AMBCA (Amblyomma cajennense, UniProt A0A023FBW7 22-118).
T8 sequence: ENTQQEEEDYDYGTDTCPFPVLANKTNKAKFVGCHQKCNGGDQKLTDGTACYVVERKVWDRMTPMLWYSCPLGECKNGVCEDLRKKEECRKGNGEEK
Put plainly: BLI.

The target of experiment [1] is T9, P1243_AMBAM (Amblyomma americanum, UniProt A0A0C9S461 26-123).
T9 sequence: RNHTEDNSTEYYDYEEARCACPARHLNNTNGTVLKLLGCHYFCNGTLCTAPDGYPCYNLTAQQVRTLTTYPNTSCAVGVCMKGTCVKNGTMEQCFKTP
Kind of experiment: BLI.

Another experiment deals with T10, P991_AMBCA (Amblyomma cajennense, UniProt A0A023FFD0 29-136).
T10 sequence: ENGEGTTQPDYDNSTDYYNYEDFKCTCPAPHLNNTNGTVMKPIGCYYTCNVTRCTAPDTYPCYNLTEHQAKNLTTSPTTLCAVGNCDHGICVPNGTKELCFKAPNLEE
Kind of experiment: BLI.

The target of the next experiment is T11, P1181_AMBMA (Amblyomma maculatum, UniProt G3MIX6 26-115).
T11 sequence: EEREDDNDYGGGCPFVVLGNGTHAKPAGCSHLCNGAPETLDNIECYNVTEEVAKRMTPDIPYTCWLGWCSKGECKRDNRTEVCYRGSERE
Put plainly: BLI.

The target in another experiment is T12, P983_AMBCA (Amblyomma cajennense, UniProt A0A023FFB5 22-119).
T12 sequence: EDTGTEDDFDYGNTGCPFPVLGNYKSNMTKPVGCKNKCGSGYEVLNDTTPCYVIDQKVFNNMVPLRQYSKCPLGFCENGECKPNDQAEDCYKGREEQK
Put plainly: BLI.

A further experiment concerns the target T13, P1182_AMBMA (Amblyomma maculatum, UniProt G3MJ83 27-115).
T13 sequence: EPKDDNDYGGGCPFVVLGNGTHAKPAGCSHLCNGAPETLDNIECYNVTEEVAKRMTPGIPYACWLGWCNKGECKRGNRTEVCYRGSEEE
Kind of experiment: BLI.

Another experiment deals with T14, P985_AMBPA (Amblyomma parvum, UniProt A0A023FT45 25-132).
T14 sequence: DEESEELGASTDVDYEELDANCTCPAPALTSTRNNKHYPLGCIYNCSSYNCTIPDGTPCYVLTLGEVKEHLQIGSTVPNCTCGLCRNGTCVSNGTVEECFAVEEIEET
Kind of experiment: BLI.

Another experiment deals with T15, P1180_AMBTR (Amblyomma triste, UniProt A0A023G6B6 26-116).
T15 sequence: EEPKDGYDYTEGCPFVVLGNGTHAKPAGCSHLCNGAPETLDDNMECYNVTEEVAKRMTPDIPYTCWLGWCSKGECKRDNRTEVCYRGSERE
Put plainly: BLI.

The next experiment addresses T16, P974_AMBCA (Amblyomma cajennense, UniProt A0A023FDY8 22-118).
T16 sequence: T8 sequence with E8Q, S69E, E88D
Put plainly: BLI.

Another experiment addresses T17, P1183_AMBTR (Amblyomma triste, UniProt A0A023G9N9 26-115).
T17 sequence: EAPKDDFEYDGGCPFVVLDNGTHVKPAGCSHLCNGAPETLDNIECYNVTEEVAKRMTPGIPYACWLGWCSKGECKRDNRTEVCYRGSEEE
Put plainly: BLI.

The target of a further experiment is T18, P467_RHIPU (Rhipicephalus pulchellus, UniProt L7M8Z8 22-127).
T18 sequence: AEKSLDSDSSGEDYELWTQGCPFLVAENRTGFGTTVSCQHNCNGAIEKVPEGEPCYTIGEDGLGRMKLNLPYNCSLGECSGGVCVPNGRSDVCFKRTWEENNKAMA
Kind of experiment: BLI.

The target of experiment [2] is T9, P1243_AMBAM. Put plainly: BLI. This is another data set of the same source.
For the next experiment, the target named is T19, CXCL8_HUMAN (human, UniProt P10145 28-99).
T19 sequence: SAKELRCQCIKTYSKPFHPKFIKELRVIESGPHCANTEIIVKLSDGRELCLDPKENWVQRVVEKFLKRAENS
Put plainly: BLI [Cont.].

The next experiment addresses T20, CXCL7_HUMAN (human, UniProt P02775 59-128).
T20 sequence: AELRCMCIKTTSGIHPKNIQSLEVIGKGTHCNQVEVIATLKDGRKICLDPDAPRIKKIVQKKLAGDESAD
Kind of experiment: BLI [Cont.].

In another experiment the target is T21, CXCL4_HUMAN (human, UniProt P02776 32-101).
T21 sequence: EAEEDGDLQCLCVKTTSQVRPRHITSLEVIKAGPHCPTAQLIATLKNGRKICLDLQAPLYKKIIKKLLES
Kind of experiment: BLI [Cont.].

Residue numbers refer to the chain shown, from its start. Where two headings read alike, the source gives them in different places.

Chain of CXCL12_HUMAN (P48061 22-89 limits assumed): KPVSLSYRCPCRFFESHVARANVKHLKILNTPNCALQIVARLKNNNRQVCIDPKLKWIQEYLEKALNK

B1: P1229_IXORI (other)
chain: DDEFFTVDYCGMNCTLQQDGSWTPCTQKNAECKCYHESGSSVGLCLSTAYTDFNQFGDPNNSDLDAATPRHPDASSR
In the case of B1, the binding result with CXCL14_HUMAN, with CXCL12_HUMAN, with CXCL13_HUMAN, with CXCL9_HUMAN, with CXCL10_HUMAN and with CXCL6_HUMAN was “no binding (tested: 300 nM)” throughout. For the same molecule, the “% cells over threshold fluorescence” value in the experiment with CXCL1_HUMAN was determined as 66%.

B2: P1162_IXORI (other)
chain: LNDEELFTVDYCGTNCTQQPNGSWTTCPGNCSCYHEDGKTDGFCLSTEYTDFTQFPNLTSEEMDAATPRPE
Take B2: the binding result with CXCL14_HUMAN, in the experiment with CXCL12_HUMAN, in the experiment with CXCL13_HUMAN, in the experiment with CXCL11_HUMAN, with CXCL9_HUMAN and with CXCL10_HUMAN was “no binding (tested: 300 nM)” each time. The binding result with CXCL6_HUMAN is listed as “no binding (tested: 300 nM)”. Also, in the experiment with CXCL1_HUMAN, the “% cells over threshold fluorescence” value was 72%.

B3: CCL4L1_HUMAN (ligand)
chain: APMGSDPPTACCFSYTARKLPRNFVVDYYETSSLCSQPAVVFQTKRGKQVCADPSESWVQEYVYDLELN
With B3, the Kd in the experiment with P546_AMBCA came out at 8.9 nM; with P1243_AMBAM [1], 35.4 nM; with P991_AMBCA, 0.827 nM; in the experiment with P1181_AMBMA, 35 nM; with P983_AMBCA it was 2.9 nM; with P1182_AMBMA, 92 nM. Besides, the Kd in the experiment with P985_AMBPA was 21 nM; with P1180_AMBTR, 20 nM; with P974_AMBCA, 23.2 nM; in the experiment with P1183_AMBTR, 48 nM; with P467_RHIPU, 4.72 nM; with P1243_AMBAM [2] it was 35.4 nM.

B4: CCL11_HUMAN (ligand)
chain: not shown
Turning to B4, the Kd with P546_AMBCA stood at 8.7 nM; with P1243_AMBAM [1] it was 6.03 nM; with P991_AMBCA, 3.43 nM; with P1181_AMBMA, 20 nM; with P983_AMBCA, 21 nM; with P1182_AMBMA it was 28 nM. For the same molecule, the Kd stood at 8 nM in the experiment with P985_AMBPA; 33 nM with P1180_AMBTR; 17 nM in the experiment with P974_AMBCA; 8.5 nM with P1183_AMBTR; 1.4 nM in the experiment with P467_RHIPU.

B5: P1077_IXORI (other)
chain: GSKQLIGPQSSTNSIKAEFCDTNCTAGTNGIWNGCSGDCFCTHVGNSTEGRCMKITGFDEYPTSEAEE
As for B5, the binding result with CXCL14_HUMAN, with CXCL12_HUMAN, with CXCL13_HUMAN, with CXCL9_HUMAN, in the experiment with CXCL10_HUMAN and with CXCL8_HUMAN was “no binding (tested: 300 nM)” throughout. The binding result with CXCL7_HUMAN and with CXCL4_HUMAN was “no binding (tested: 300 nM)” throughout. Further, the “% cells over threshold fluorescence” value with CXCL1_HUMAN worked out at 50%.

B6: P1132_IXORI (other)
chain: LSDEDELFSVEYCGTNCTKQDTGSWTTCSGNCTCYHEDGKKVGLCLSTEYTDFTKFPKPTSEEIANARPLPKREKTLN
On to B6, for which the binding result with CXCL12_HUMAN, with CXCL13_HUMAN and with CXCL9_HUMAN was “no binding (tested: 300 nM)” each time. Moreover, the “% cells over threshold fluorescence” value in the experiment with CXCL1_HUMAN amounted to 68%.

B7: P1166_IXORI (other)
chain: GPETKEDKKSDVYELFTVEYCGTNCTLLTNGRWTACTGKKGTCRCYHESGEKVGLCLSTEYTDFSEYPNPKSSEIDAAAPLPRETH
On to B7, for which the binding result with CXCL12_HUMAN, in the experiment with CXCL13_HUMAN and with CXCL9_HUMAN was “no binding (tested: 300 nM)” each time. Moreover, the “% cells over threshold fluorescence” value with CXCL1_HUMAN amounted to 63%.

B8: P1104_IXORI (other)
chain: ESKEASASQGPGKSFKVEFCETNCTENNGVWSGCTGDCICVSVGDSKEGRCMDLGDKVIDTPVAQG
Consider B8, for which the binding result with CXCL14_HUMAN, in the experiment with CXCL11_HUMAN, with CXCL9_HUMAN, with CXCL10_HUMAN, in the experiment with CXCL8_HUMAN and with CXCL7_HUMAN was “no binding (tested: 300 nM)” throughout. The binding result with CXCL4_HUMAN is “no binding (tested: 300 nM)”. The Kd with CXCL12_HUMAN is 67.8 nM; in the experiment with CXCL13_HUMAN, 220 nM. Besides, the “% cells over threshold fluorescence” value with CXCL1_HUMAN was 65%.
